Results: patent US20150266974A1 (RINAT NEUROSCIENCE, published 2015)

How the values were obtained:
[1] = target: T1, human IgE-Fc (Ch2-Ch3-Ch4), minimally biotinylated (human, UniProt P01854-1 105-428, limits assumed, minimally biotinylated with EZ-Link NHS-LC-LC-biotin (sites not given)); assay: SPR Biacore T200, biotin-IgE-Fc captured, Fab injected, 25 C, pH 6.0
T1 construct: domain: Ch2-Ch3-Ch4; Captured on NeutrAvidin chip; also called IgE construct; B-IgE
Experimental: (§1) A biotin-capture surface was prepared by immobilization of NeutrAvidin: all flow cells of a Biacore CM4 sensor chip were activated with a 1:1 (v/v) mixture of 400 mM EDC and 100 mM NHS for 7 minutes, at a flow rate of 10 μL/min. NeutrAvidin (Pierce, product #: 31000) was diluted to 100 μg/mL in 10 mM Sodium Acetate pH 4.5 and injected on all flow cells for 7 minutes at 20 μL/min. All flow cells were blocked with 100 mM Ethylenediamine in 150 mM Borate buffer pH 8.5 for 7 minutes at 10 μL/min.
(§2) Following capture of B-IgE, a purified Fab fragment was injected at 30 μL/min on analysis and reference flow cells in a series of injections from low to high concentration. The top concentration of Fab ranged from 30 nM to 200 nM and the dilution factor was 3-fold. Each Fab dilution was injected for 2 minutes, followed by a final dissociation time of 30 minutes after the last injection. A similar set of injections was performed with running buffer in place of Fab for double-referencing purposes (double-referencing as described in Myszka, J Mol Recognit 12: 279-284, 1999). The double-referenced sensorgrams were fit globally to a simple 1:1 Langmuir with mass transport binding model.
(§3) The experiments were performed at pH 6.0 and 7.4 using sample and running buffers of 10 mM Sodium Phosphate, 150 mM Sodium Chloride, 0.05% Tween-20, 1 mg/mL BSA, pH 6 and 10 mM Sodium Phosphate, 150 mM Sodium Chloride, 0.05% Tween-20, 1 mg/mL BSA, pH 7.4, respectively.

[2] = target: T1, human IgE-Fc (Ch2-Ch3-Ch4), minimally …; assay: SPR Biacore T200, biotin-IgE-Fc captured, Fab injected, 25 C, pH 7.4
Experimental: (§4) All Biacore experiments were performed using two of the four flow cells (1&2 or 3&4) of the sensor chip in parallel. The downstream flow cell was used as analysis flow cell while the other flow cell was used as a reference surface. Thus, biotinylated IgE (B-IgE) was captured on the analysis flow cell and every purified Fab fragment was injected over both. The sensorgram from the reference flow cell was subtracted from that of the analysis flow cell.
as §2, §3

[3] = target: T1, human IgE-Fc (Ch2-Ch3-Ch4), minimally …; assay: SPR Biacore T200, KD at pH 6.0 over KD at pH 7.4
Experimental: as §4, §2, §3

[4] = target: T1, human IgE-Fc (Ch2-Ch3-Ch4), minimally …; assay: SPR Biacore T200, kd at pH 6.0 over kd at pH 7.4
Experimental: as §1, §2, §3

[5] = target: T2, PCSK9 (species not stated, Table 7 assay) (Pan troglodytes (Chimpanzee); Homo …, UniProt A8T644 31-152; Q8NBP7 153-692); assay: SPR Biacore 2000, IgG on anti-human Fc, PCSK9 injected, pH 6.0
T2 construct: kept apart from m1 and m2
T2 sequence (A8T644 31-152 limits assumed, chain 1 of 2): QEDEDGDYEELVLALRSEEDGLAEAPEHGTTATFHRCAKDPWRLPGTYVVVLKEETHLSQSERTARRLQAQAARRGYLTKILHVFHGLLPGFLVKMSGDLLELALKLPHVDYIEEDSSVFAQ
T2 sequence (A8T644 other isoform, or with tags, fused parts or gaps limits assumed, chain 2 of 2): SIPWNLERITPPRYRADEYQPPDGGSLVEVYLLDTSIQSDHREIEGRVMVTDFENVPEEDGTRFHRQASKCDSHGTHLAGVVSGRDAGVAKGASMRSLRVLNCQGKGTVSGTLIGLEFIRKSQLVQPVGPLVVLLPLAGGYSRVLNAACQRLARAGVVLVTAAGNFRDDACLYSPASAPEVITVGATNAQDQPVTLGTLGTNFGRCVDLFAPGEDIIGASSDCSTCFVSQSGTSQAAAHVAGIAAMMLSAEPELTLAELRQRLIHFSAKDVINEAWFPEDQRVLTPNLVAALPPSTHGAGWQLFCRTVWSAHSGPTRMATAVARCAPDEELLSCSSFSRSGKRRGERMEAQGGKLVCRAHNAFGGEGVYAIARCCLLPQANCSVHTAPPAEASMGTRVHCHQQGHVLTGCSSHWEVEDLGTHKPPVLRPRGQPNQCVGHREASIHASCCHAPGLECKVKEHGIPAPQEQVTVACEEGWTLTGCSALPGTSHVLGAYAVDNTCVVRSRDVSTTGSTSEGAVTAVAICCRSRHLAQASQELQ
Experimental: (§5) Affinity and kinetic parameters for PCSK9 antibodies h5A10 and 5L1721H23_{—}6L3H3 as well as PCSK9 antibody H1M300N (see US2010/0166768, e.g., at Table 7). All experiments were performed on a Biacore 2000 biosensor.
(§6) An anti-human Fc sensor chip was prepared by activating all flow cells of a Biacore CM4 sensor chip with a 1:1 (v/v) mixture of 400 mM EDC and 100 mM NHS for 7 minutes, at a flow rate of 10 μL/min. An anti-human Fc reagent (Goat F(AB′)2 Fragment to Human IgG Fc, Cappel Catalog #: 55053) was diluted to 60 μg/mL in 10 mM Sodium Acetate pH 5.0 and injected on all flow cells for 7 minutes at 20 μL/min. All flow cells were blocked with 100 mM ethylenediamine in 150 mM Borate buffer pH 8.5 for 7 minutes at 10 μL/min.
(§7) The experiments were performed at pH 6.0 and 7.4 using sample and running buffers of 10 mM Sodium Phosphate, 150 mM Sodium Chloride, 0.05% Tween-20, pH 6 and 10 mM Sodium Phosphate, 150 mM Sodium Chloride, 0.05% Tween-20, pH 7.4, respectively.

[6] = target: T2, PCSK9 (species not stated, Table 7 …); assay: SPR Biacore 2000, IgG on anti-human Fc, PCSK9 injected, pH 7.4
Experimental: as §5, §6, §7

T1 sequence (P01854 other isoform, or with tags, fused parts or gaps limits assumed): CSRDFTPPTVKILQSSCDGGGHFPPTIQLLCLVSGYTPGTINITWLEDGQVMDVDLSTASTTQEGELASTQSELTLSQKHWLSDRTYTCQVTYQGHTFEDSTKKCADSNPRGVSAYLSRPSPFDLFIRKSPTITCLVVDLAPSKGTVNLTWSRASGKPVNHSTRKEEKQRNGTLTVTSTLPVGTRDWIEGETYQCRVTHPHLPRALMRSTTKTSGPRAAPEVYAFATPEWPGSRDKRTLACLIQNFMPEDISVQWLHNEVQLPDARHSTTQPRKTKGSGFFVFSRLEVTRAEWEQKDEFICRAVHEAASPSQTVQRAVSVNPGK

Row | Binder | Kd [1] | koff [1] | kon [1] | Kd [2] | koff [2] | kon [2] | KD ratio pH 6.0/pH 7.4 [3] | kd ratio pH 6/pH 7.4 [4] | Kd [5] | koff [5] | kon [5] | t1/2 [5] | Kd [6] | koff [6] | kon [6] | t1/2 [6]
1 | H25H100Y (Fab) (Fab, V domains shown) VH: QVQLVQSGAEVKKPGASVKVSCKASGYTFTSYDINWVRQATGQGLEWMGWMDPHSGNTGYAQKFQGRVTMTRNTSISTAYMELSSLRSEDTAVYYCARGYYDSDGYYSFSGMDVWGQGTTVTVSS VL: not shown | 5.08 nM | 0.00151 s⁻¹ | 298000 M⁻¹ s⁻¹ | 0.634 nM | 0.000197 s⁻¹ | 311000 M⁻¹ s⁻¹ | 8 | 7.66 | – | – | – | – | – | – | – | –
2 | h5A10 (antibody, V domains shown, In the histidine scan it was used as a Fab with a histidine tag at the C-terminus of CH1; also called 5A10 hu frame) VH: QVQLVQSGAEVKKPGASVKVSCKASGYTFTSYYMHWVRQAPGQGLEWMGEINPSGGRTNYNEKFKSRVTMTRDTSTSTVYMELSSLRSEDTAVYYCARERPLYAMDYWGQGTTVTVSS VL: DIQMTQSPSSLSASVGDRVTITCKASQDVSTAVAWYQQKPGKAPKLLIYSASYRYTGVPSRFSGSGSGTDFTFTISSLQPEDIATYYCQQRYSTPRTFGQGTKLEIK | – | – | – | – | – | – | – | – | < 0.181 nM | < 6e-05 s⁻¹ | 331000 M⁻¹ s⁻¹ | < 3.22 h | < 0.249 nM | < 6e-05 s⁻¹ | 241000 M⁻¹ s⁻¹ | < 3.22 h

Now from value to binder:

Row | Kd [1] | koff [1] | kon [1] | Kd [2] | koff [2] | kon [2] | KD ratio pH 6.0/pH 7.4 [3] | kd ratio pH 6/pH 7.4 [4] | Kd [5] | koff [5] | kon [5] | t1/2 [5] | Kd [6] | koff [6] | kon [6] | t1/2 [6] | Binder
3 | 0.149 nM | 0.000152 s⁻¹ | 1.02e+06 M⁻¹ s⁻¹ | 0.0487 nM | 5.01e-05 s⁻¹ | 1.03e+06 M⁻¹ s⁻¹ | 3.1 | 3.03 | – | – | – | – | – | – | – | – | anti-IgE antibody 5.948-H100Y (Fab) (Fab, V domains shown, Injected as purified Fab fragment) VH: QVQLVQSGAEVKKPGASVKVSCKASGYTFTSYDINWVRQATGQGLEWMGWMDPNSGNTGYAQKFQGRVTMTRNTSISTAYMELSSLRSEDTAVYYCARGYYDSDGYYSFSGMDVWGQGTTVTVSS VL: not shown
4 | 37.1 nM | 0.0122 s⁻¹ | 329000 M⁻¹ s⁻¹ | 5.33 nM | 0.00108 s⁻¹ | 202000 M⁻¹ s⁻¹ | 7 | 11.3 | – | – | – | – | – | – | – | – | L38H312H100Y (Fab) (Fab, V domains shown) VH: QVQLVQSGAEVKKPGASVKVSCKASGYTFTSYDINWVRQATGQGLEWMGWMDPNSGNTGYAQKFQGRVTMTRNTSISTAYMELSSLRSEDTAVYYCARGYYDSDGYYSFHGMDVWGQGTTVTVSS VL: not shown
5 | 16.3 nM | 0.00364 s⁻¹ | 223000 M⁻¹ s⁻¹ | 1.9 nM | 0.000422 s⁻¹ | 222000 M⁻¹ s⁻¹ | 8.6 | 8.63 | – | – | – | – | – | – | – | – | H17H25H100Y (Fab) (Fab, V domains shown) VH: QVQLVQSGAEVKKPGASVKVSCKASGYTFTSHDINWVRQATGQGLEWMGWMDPHSGNTGYAQKFQGRVTMTRNTSISTAYMELSSLRSEDTAVYYCARGYYDSDGYYSFSGMDVWGQGTTVTVSS VL: not shown
